Assay results: patent US20090018074A1
pKd: −log10 of the molar value.

How the values were obtained:
[1] = target: Cad7-12 truncated Bt-R1a cadherin expressed in S2 cells (Manduca sexta); test: 125I-Cry1Ab saturation binding on suspensions of S2 cells expressing the fragment; dissociation constant (Kcom)
[2] = target: Cad11-12 truncated Bt-R1a cadherin expressed in S2 cells (Manduca sexta); test: 125I-Cry1Ab saturation binding on S2 cell suspensions; reference Cad12
[3] = target: full length Bt-R1a cadherin expressed in Drosophila S2 cells (Manduca sexta); test: 125I-Cry1Ab saturation binding on suspensions of S2 cells expressing full-length Bt-R1a
[4] = target: full length Bt-R1a cadherin expressed in Drosophila S2 cells (Manduca sexta); test: 125I-Cry1Ab saturation binding on suspensions of S2 cells expressing full-length Bt-R1a; dissociation constant (Kcom)
[5] = target: Cad12 truncated Bt-R1a cadherin expressed in S2 cells (Manduca sexta); test: 125I-Cry1Ab saturation binding on suspensions of S2 cells expressing the fragment
[6] = target: Cad7-12 truncated Bt-R1a cadherin expressed in S2 cells (Manduca sexta); test: as above
[7] = target: Cad11-12 truncated Bt-R1a cadherin expressed in S2 cells (Manduca sexta); test: as above

Cry1Ab toxin (ligand)
pKd [1]: 8.69
fold concentration of binding sites against Cad12 [2]: 3 fold
Bmax (concentration of receptors) (fmoles/mg protein) [3]: 625
pKd [4]: 8.45
Bmax (concentration of receptors) (fmoles/mg protein) [5]: 1410
Bmax (concentration of receptors) (fmoles/mg protein) [6]: 506
Bmax (concentration of receptors) (fmoles/mg protein) [7]: 3320
